Results: PMC4533164, “Approaching rational epitope vaccine design for hepatitis C virus with meta-server and multivalent scaffolding” (Scientific Reports, 2015)

Experiments:
1VQO_U_ES-ferritin [1] = target: 1VQO_U_ES-ferritin (UniProt Q9ZLI1); test: native gel or EMSA; blue native (BN) PAGE of the purified nanoparticle, Coomassie blue staining
1VQO_U_ES-ferritin [2] = target: T1, 1VQO_U_ES-ferritin (UniProt Q9ZLI1); test: ELISA; HCV antigen coated on 96-well plates overnight at 4 °C; antibody added at a maximum of 2 μg/ml in a 5-fold dilution series, 1 h at RT; detected with peroxidase goat anti-human IgG, read at 450 nm; settings: both partners purified
T1 construct: ferritin subunit beginning at Asp5; 24 copies on the particle; also called E1 nanoparticle antigen; source: HEK293F, transiently expressed, purified (Ni Sepharose excel, SEC); copies: 24

“1VQO_U_ES-ferritin (from UniProt Q9ZLI1 5-167)” gave a stoichiometry N (1VQO_U_ES-ferritin [1]) of 24.

B1: human neutralizing antibody IGH526 (antibody, V domains shown)
VH: VQLLEQSGAEVKRPGASVKVSCKASGYTFTSYAIHWVRQAPGQRLEWMGWINPGNGNAKYSQRFQGRVIISRDTSATTSYMELSSLTSEDTAVYSCARDRGFDLLTGHYLGLDPWGQGTLVTVSS
VL: ELTLTQPASASATPGQRVTISCSGSSSNIGGNTVNWYQHLPGAAPKLLIHNNDLRPSGVPDRFSGSKSGTSASLAVSGLQSEDEADYFCAAWDDGLNGWVFGGGTKLTVL
notes: Captured on anti-human Fc biosensors and detected with anti-human IgG, so it carried a human Fc in the assays; also called nAb IGH526
B1: binds (1VQO_U_ES-ferritin [2]).
